Legend:
[1] = biological target: T1, Anti-CD28 scFv (VH-linker 1-VL) (biotinylated (site not stated)); test: phage binding ELISA on captured anti-CD28 scFv, wells pre-incubated with soluble CD28 (competitor);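 further: crude clonal phage supernatants added without washing, bound phage detected by HRP-conjugated anti-M13 antibody, control wells held blocking buffer alone instead of CD28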
T1 construct: biotinylated and captured on neutravidin coated plates in the phage ELISA

[2] = biological target: T1, Anti-CD28 scFv (VH-linker 1-VL); test: phage binding ELISA on captured biotinylated anti-CD28 scFv;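 further: crude clonal phage supernatants applied to the wells, bound phage read out with an HRP-conjugated anti-M13 antibody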
Description: Clonal phage were harvested as crude supernatants and screened via standard enzyme linked immunosorbent assays (ELISAs). […] Prior to the addition of clonal phage, wells were incubated with blocking buffer and CD28 soluble protein or blocking buffer alone. Without washing or aspirating, clonal phage supernatants were then added to the wells and incubated for a short time. Wells were then washed followed by detection of bound phage using a horse radish peroxidase conjugated anti-M13 antibody.

[3] = biological target: T2, anti-CD28 scFv (VH-linker 1-VL) (biotinylated (site not stated)); test: phage ELISA; scFv wells pre-incubated with soluble CD28 (competitor);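 further: crude clonal phage supernatants added to wells pretreated with soluble CD28 in blocking buffer, bound phage read via HRP-linked anti-M13 antibody, reference wells got blocking buffer only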
T2 construct: Captured as biotinylated scFv on neutravidin coated plates in the phage ELISA
T2 sequence (scFv, as listed by the source): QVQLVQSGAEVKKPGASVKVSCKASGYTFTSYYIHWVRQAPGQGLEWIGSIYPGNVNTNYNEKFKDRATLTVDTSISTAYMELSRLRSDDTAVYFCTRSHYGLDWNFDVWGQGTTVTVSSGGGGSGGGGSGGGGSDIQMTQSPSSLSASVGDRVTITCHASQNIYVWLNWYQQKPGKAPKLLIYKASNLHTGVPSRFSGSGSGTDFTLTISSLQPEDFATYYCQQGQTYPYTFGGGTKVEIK

T1 sequence (scFv, as listed by the source): as above

Binder	CD28 scFv signal in presence of CD28 [1]	CD28 scFv signal [2]	CD28 scFv signal in presence of CD28 [3]
IDWCPMHMWDFCYN [Phage-390]	0.232		
MDWCPRYLWDECFS [Phage-334]	0.164	2.06	
MDWCPRHLWHACFS [Phage-346]	0.167	1.83	
MDWCPRDLWTQCFF [Phage-343]	0.119	1.93	
MDWCPRHLWDECFN [Phage-341]	0.268	1.98	
MDWCPRHLWLECFN [Phage-387]	0.074	0.066	
MDWCPRHLWIECFN [Phage-322]	0.376	2.21	
MDWCPRHLWDECFY [Phage-331]	0.146	2.13	
MDWCPRYLWLECFN [Phage-354]	0.368	1.69	
MDWCPRTLWDQCFF [Phage-339]	0.314	1.99	
MDWCPIHLWYECFN [Phage-352]	0.203	1.73	
MDWCPPHLWHECFF [Phage-358]		1.45	
IDWCPLHLWHECYH [Phage-353]	0.182	1.69	
MDWCPWFLWNECFN [Phage-350]	0.279	1.77	
MDWCPRHLWYECFS [Phage-324]	0.163	2.17	
MHWCPRDLWHVCFN [Phage-327]	0.15	2.15	
MFWCPITLWNECFN [Phage-326]	0.143	2.15	
IDWCPRALWDACLA [Phage-332]	0.164	2.1	
MDWCPAYLWDECFA [Phage-325]	0.163	2.17	
MDWCPRFLWDVCFN [Phage-330]	0.309	2.14	
MDWCPRDLWNWCFN [Phage-336]	0.39	2.03	

Binder	CD28 scFv signal in presence of CD28 [1]	CD28 scFv signal [2]	CD28 scFv signal in presence of CD28 [3]
MDWCPSDMWANCFF [Phage-389]	0.316		
MDWCPRALWNVCFA [Phage-329]	0.249	2.14	
MDFCPRFLWHECFN [Phage-345]	0.225	1.91	
MDWCPRNLWHECFA [Phage-342]	0.175	1.97	
MDWCPMNLWHECFA [Phage-351]	0.16	1.74	
MDWCPRPLWHECFA [Phage-359]	0.138	1.44	
MDWCPRALWDHCFN [Phage-328]	0.293	2.15	
VDWCPAHMWNECYN [Phage-419]		0.664	
MDWCPRHLWVHCFS [Phage-344]	0.173	1.91	
MDWCPTDLWHECFA [Phage-333]	0.154	2.07	
MDWCPTYLWNVCFA [Phage-323]	0.132	2.21	
MDWCPSNMWNECFF [Phage-416]		0.983	
MSWCPIDLWSECFA [Phage-340]	0.148	1.99	
MDWCPRYLWNVCFA (on phage (pIII fusion)) [Phage-289 clonal phage peptide]			0.28
MDWCPRFLWDYCFA [Phage-335]	0.207	2.03	
MAWCPWYLWDECFN [Phage-348]	0.267	1.81	
MDWCPKPLWHVCFA [Phage-337]	0.152	2.02	
LDWCPRHLWALCFN [Phage-349]	0.24	1.78	
MDWCPRFLWNECFY [Phage-338]	0.287	2	
LHWCPTSMWTYCYY [Phage-392]	2.46		
MDWCPLFLWDQCFN [Phage-347]	0.264	1.82	
